B1: HBS monoclonal antibody (antibody, V domains shown)
VH: VQLQQSGPELVKPGASVKMSCKASGYTLTDYVIGWVKQRTGQGLEWIGEVYPGSVYTSYNEKFKGKATLTADKSSNTAYMQLSGLTSDDSAVYFCAYDGYSPFDYWGQGTTLTVSS
VL: NIVMTQSPKSMSMSVGERVTLTCKASENVGTYVSWFQQKPGQSPKLLIYGASNRYIGVPDRFTGSGSATDFTLTISSVQAEDLAEYHCGQSYNYPHTFGGGTKLVIKR
B2: pre-S2 monoclonal antibody (antibody, V domains shown)
VH: QVQLQQPGTELVKPGTSVKLSCKASGYTFTSYWMHWVKLRPGQGFEWIGEINPSNGITNYNEKFKRKATLTVDKSSTTAYMQLSSLTFEDSAVYYCTIGYDYGSNYEAMDFWGQGTSVTVSS
VL: DIVMTQAAFSNPVTLGTSASMSCRSSKSLLHSNGITYLYWYLQKPGQSPQLLIYQMSNLASGVPDRFSSGGSGTDFTLRISRVEAEDVGVYYCAQNLELPWTFGGGTKLEIK

Columns and labels:
[1] = target: large surface protein of hepatitis B virus (LHBS), full-length (hepatitis B virus); assay: chemiluminescent sandwich ELISA on pooled HBsAg(+) sera; pre-S1 antibody coated, HBS antibody detecting (platform 2)
[2] = target: large surface protein of hepatitis B virus (LHBS), full-length (hepatitis B virus); assay: chemiluminescent sandwich ELISA on pooled HBsAg(+) sera; pre-S1 antibody coated, pre-S2 antibody detecting (platform 1)
[3] = target: pre-S region E. coli recombinant protein (hepatitis B virus); assay: chemiluminescent ELISA, serially diluted antigen coated, antibody 1:2000
Chain of pre-S region E. coli recombinant protein (hepatitis B virus) (P03141 2-174): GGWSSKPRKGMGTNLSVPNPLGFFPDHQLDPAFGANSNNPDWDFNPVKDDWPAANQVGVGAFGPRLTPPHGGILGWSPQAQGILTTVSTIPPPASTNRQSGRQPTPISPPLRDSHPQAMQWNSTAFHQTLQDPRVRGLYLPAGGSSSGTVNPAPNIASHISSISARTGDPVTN

Binder	limit of quantification (LOQ) [1] [ng/mL]	limit of quantification (LOQ) [2] [ng/mL]	limit of linearity (LOL) [3] [ng/mL]	limit of quantification (LOQ) [3] [ng/mL]
B1	1.7			
B2		13.5	1.56	0.04

From patent US20230018242A1
